# Measured values published in IntAct's records for PubMed 31515488.
# B1: THAP domain-containing protein 7 (Homo sapiens), Q9BT49 (parent)
# chain: MPRHCSAAGCCTRDTRETRNRGISFHRLPKKDNPRRGLWLANCQRLDPSGQGLWDPASEYIYFCSKHFEEDCFELVGISGYHRLKEGAVPTIFESFSKLRRTTKTKGHSYPPGPAEVSRLRRCRKRCSEGRGPTTPFSPPPPADVTCFPVEEASAPATLPASPAGRLEPGLSSPFSDLLGPLGAQADEAGCSAQPSPERQPSPLEPRPVSPSAYMLRLPPPAGAYIQNEHSYQVGSALLWKRRAEAALDALDKAQRQLQACKRREQRLRLRLTKLQQERAREKRAQADARQTLKEHVQDFAMQLSSSMA
# B2: Oxidative stress-induced growth inhibitor 1 (Homo sapiens), Q9UJX0 (parent)
# chain: MSSSRKDHLGASSSEPLPVIIVGNGPSGICLSYLLSGYTPYTKPDAIHPHPLLQRKLTEAPGVSILDQDLDYLSEGLEGRSQSPVALLFDALLRPDTDFGGNMKSVLTWKHRKEHAIPHVVLGRNLPGGAWHSIEGSMVILSQGQWMGLPDLEVKDWMQKKRRGLRNSRATAGDIAHYYRDYVVKKGLGHNFVSGAVVTAVEWGTPDPSSCGAQDSSPLFQVSGFLTRNQAQQPFSLWARNVVLATGTFDSPARLGIPGEALPFIHHELSALEAATRVGAVTPASDPVLIIGAGLSAADAVLYARHYNIPVIHAFRRAVDDPGLVFNQLPKMLYPEYHKVHQMMREQSILSPSPYEGYRSLPRHQLLCFKEDCQAVFQDLEGVEKVFGVSLVLVLIGSHPDLSFLPGAGADFAVDPDQPLSAKRNPIDVDPFTYQSTRQEGLYAMGPLAGDNFVRFVQGGALAVASSLLRKETRKPP
# partner: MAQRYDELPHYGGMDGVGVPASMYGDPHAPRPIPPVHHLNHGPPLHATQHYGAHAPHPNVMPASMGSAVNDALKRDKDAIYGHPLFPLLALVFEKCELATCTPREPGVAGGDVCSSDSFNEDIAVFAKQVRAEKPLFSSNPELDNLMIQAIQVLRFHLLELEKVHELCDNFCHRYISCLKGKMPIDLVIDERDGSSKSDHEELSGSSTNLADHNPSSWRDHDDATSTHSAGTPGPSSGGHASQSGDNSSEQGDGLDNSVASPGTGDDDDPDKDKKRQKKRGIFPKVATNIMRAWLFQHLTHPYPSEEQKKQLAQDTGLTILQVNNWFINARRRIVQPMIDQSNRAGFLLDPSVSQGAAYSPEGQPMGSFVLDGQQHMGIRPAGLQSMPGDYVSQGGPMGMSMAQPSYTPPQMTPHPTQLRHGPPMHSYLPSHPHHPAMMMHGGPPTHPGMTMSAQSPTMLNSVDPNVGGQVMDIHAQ
# B3: Fanconi anemia group G protein (Homo sapiens), O15287 (parent)
# chain: MSRQTTSVGSSCLDLWREKNDRLVRQAKVAQNSGLTLRRQQLAQDALEGLRGLLHSLQGLPAAVPVLPLELTVTCNFIILRASLAQGFTEDQAQDIQRSLERVLETQEQQGPRLEQGLRELWDSVLRASCLLPELLSALHRLVGLQAALWLSADRLGDLALLLETLNGSQSGASKDLLLLLKTWSPPAEELDAPLTLQDAQGLKDVLLTAFAYRQGLQELITGNPDKALSSLHEAASGLCPRPVLVQVYTALGSCHRKMGNPQRALLYLVAALKEGSAWGPPLLEASRLYQQLGDTTAELESLELLVEALNVPCSSKAPQFLIEVELLLPPPDLASPLHCGTQSQTKHILASRCLQTGRAGDAAEHYLDLLALLLDSSEPRFSPPPSPPGPCMPEVFLEAAVALIQAGRAQDALTLCEELLSRTSSLLPKMSRLWEDARKGTKELPYCPLWVSATHLLQGQAWVQLGAQKVAISEFSRCLELLFRATPEEKEQGAAFNCEQGCKSDAALQQLRAAALISRGLEWVASGQDTKALQDFLLSVQMCPGNRDTYFHLLQTLKRLDRRDEATALWWRLEAQTKGSHEDALWSLPLYLESYLSWIRPSDRDAFLEEFRTSLPKSCDL
# partner: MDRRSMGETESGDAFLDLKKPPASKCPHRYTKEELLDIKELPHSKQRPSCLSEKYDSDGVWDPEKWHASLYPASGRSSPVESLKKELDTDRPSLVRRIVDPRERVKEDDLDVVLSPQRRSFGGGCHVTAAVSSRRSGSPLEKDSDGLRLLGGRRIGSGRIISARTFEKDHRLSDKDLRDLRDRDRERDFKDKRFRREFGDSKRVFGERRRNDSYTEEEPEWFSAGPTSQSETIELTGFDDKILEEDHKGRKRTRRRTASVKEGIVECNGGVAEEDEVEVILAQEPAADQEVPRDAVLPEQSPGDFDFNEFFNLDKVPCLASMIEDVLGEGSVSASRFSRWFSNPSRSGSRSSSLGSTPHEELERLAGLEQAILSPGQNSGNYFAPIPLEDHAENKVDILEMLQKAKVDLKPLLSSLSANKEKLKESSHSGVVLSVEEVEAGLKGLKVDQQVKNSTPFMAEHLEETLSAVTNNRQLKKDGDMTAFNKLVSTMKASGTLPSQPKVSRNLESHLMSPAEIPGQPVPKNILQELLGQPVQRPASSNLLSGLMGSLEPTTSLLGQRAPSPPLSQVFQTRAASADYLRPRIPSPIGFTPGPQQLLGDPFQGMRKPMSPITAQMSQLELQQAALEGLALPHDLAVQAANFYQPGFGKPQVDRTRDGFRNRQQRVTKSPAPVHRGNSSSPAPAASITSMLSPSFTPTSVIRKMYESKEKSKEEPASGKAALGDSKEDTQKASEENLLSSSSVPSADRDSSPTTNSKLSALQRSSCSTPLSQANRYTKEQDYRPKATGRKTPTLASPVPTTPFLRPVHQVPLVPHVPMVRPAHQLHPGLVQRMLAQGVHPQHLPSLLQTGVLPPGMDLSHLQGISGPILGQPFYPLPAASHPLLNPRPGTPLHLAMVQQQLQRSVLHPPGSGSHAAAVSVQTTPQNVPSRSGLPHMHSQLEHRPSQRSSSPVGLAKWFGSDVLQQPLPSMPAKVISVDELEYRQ
# B4: Protein NOXP20 (Homo sapiens), Q8IWE2 (parent)
# chain: MSDDAGDTLATGDKAEVTEMPNSDSLPEDAEVHCDSAAVSHEPTPADPRGEGHENAAVQGAGAAAIGPPVQPQDANALEPPLNGDVTEDTLAECIDSVSLEAEPRSEIPLQEQNYLAVDSPPSGGGWAGWGSWGKSLLSSASATVGHGLTAVKEKAGATLRIHGVNSGSSEGAQPNTENGVPEITDAATDQGPAESPPTSPSSASRGMLSAITNVVQNTGKSVLTGGLDALEFIGKKTMNVLAESDPGFKRTKTLMERTVSLSQMLREAKEKEKQRLAQQLTMERTAHYGMLFDEYQGLSHLEALEILSNESESKVQSFLASLDGEKLELLKNDLISIKDIFAAKELENEENQEEQGLEEKGEEFARMLTELLFELHVAATPDKLNKAMKRAHDWVEEDQTVVSVDVAKVSEEETKKEEKEEKSQDPQEDKKEEKKTKTIEEVYMSSIESLAEVTARCIEQLHKVAELILHGQEEEKPAQDQAKVLIKLTTAMCNEVASLSKKFTNSLTTVGSNKKAEVLNPMISSVLLEGCNSTTYIQDAFQLLLPVLQVSHIQTSCLKAQP
# partner: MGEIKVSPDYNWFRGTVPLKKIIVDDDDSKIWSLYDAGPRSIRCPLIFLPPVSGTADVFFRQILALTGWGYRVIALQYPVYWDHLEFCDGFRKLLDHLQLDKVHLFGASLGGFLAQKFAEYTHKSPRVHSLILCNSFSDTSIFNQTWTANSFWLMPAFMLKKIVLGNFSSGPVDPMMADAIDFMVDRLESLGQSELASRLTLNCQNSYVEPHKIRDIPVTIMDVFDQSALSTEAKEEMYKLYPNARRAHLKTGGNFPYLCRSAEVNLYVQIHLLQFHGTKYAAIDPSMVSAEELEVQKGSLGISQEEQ
# Variants of: B1
# Details: with mdfi_human MDFI
row,Variant,effect of a mutation on the interaction
1,MPRHCSAAGCCTRDTRETRNRGISFHRLPKKDNPRRGLWLANCQRLDPSGQGLWDPASEYIYFCSKHFEEDCFELVGISGYHRLKEGAVPTIFESFSKLRRTTKTKGHSYPPGPAEVSRLRRCRKRCSEGRGPTTPFSPPPPADVTCFPVEEASAPATLPASPAGRLDPGLSSPFSDLLGPLGAQADEAGCSAQPSPERQPSPLEPRPVSPSAYMLRLPPPAGAYIQNEHSYQVGSALLWKRRAEAALDALDKAQRQLQACKRREQRLRLRLTKLQQERAREKRAQADARQTLKEHVQDFAMQLSSSMA [E168D],disrupting interaction strength

# Variants of: B1
# Details: with traf2_human TRAF2, Q12933
# Chain of traf2_human TRAF2, Q12933 (Q12933 whole entry): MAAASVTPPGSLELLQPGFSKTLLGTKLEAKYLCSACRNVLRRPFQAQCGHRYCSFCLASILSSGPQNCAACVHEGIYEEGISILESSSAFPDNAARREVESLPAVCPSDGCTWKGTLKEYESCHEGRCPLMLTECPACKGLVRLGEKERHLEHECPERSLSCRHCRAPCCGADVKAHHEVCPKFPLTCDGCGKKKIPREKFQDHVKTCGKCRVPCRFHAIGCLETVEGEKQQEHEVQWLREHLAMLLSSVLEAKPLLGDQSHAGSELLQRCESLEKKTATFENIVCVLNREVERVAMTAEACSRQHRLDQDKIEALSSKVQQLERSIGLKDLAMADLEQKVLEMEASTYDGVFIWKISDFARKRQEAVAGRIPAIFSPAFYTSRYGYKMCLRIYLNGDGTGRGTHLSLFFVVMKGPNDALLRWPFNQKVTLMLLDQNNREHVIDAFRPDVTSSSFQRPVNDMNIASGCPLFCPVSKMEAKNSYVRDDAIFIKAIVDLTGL
row,Variant,effect of a mutation on the interaction
1,MPRHCSAAGCCTRDTRETRNRGISFHRLPKKDNPRRGLWLANCQRLDPSGQGLWDPASEYIYFCSKHFEEDCFELVGISGYHRLKEGAVPTIFESFSKLRRTTKTKGHSYPPGPAEVSRLRRCRKRCSEGRGPTTPFSPPPPADVTCFPVEEASAPATLPASPAGRLDPGLSSPFSDLLGPLGAQADEAGCSAQPSPERQPSPLEPRPVSPSAYMLRLPPPAGAYIQNEHSYQVGSALLWKRRAEAALDALDKAQRQLQACKRREQRLRLRLTKLQQERAREKRAQADARQTLKEHVQDFAMQLSSSMA [E168D],with no effect

# Variants of: B1
# Details: with set_human SET
row,Variant,effect of a mutation on the interaction
1,MPRHCSAAGCCTRDTRETRNRGISFHRLPKKDNPRRGLWLANCQRLDPSGQGLWDPASEYIYFCSKHFEEDCFELVGISGYHRLKEGAVPTIFESFSKLRRTTKTKGHSYPPGPAEVSRLRRCRKRCSEGRGPTTPFSPPPPADVTCFPVEEASAPATLPASPAGRLDPGLSSPFSDLLGPLGAQADEAGCSAQPSPERQPSPLEPRPVSPSAYMLRLPPPAGAYIQNEHSYQVGSALLWKRRAEAALDALDKAQRQLQACKRREQRLRLRLTKLQQERAREKRAQADARQTLKEHVQDFAMQLSSSMA [E168D],with no effect

# Variants of: B2
# Details: with meis2_human MEIS2, O14770
row,Variant,effect of a mutation on the interaction
1,MSSSRKDHLGASSSEPLPVIIVGNGPSGICLSYLLSGYTPYTKPDAIHPHPLLQRKLTEAPGVSILDQDLDYLSEGLEGRSQSPVALLFDALLRPDTDFGGNMKSVLTWKHRKEHAIPHVVLGRNLPGGAWHSIEGSMVILSQGQWMGLPDLEVKDWMQKKRRGLRNSRATAGDIAHYYRDYVVKKGLGHNFVSGAVVTAVEWGTPDPSSCGAQDSSPLFQVSGFLTRNQAQQPFLLWARNVVLATGTFDSPARLGIPGEALPFIHHELSALEAATRVGAVTPASDPVLIIGAGLSAADAVLYARHYNIPVIHAFRRAVDDPGLVFNQLPKMLYPEYHKVHQMMREQSILSPSPYEGYRSLPRHQLLCFKEDCQAVFQDLEGVEKVFGVSLVLVLIGSHPDLSFLPGAGADFAVDPDQPLSAKRNPIDVDPFTYQSTRQEGLYAMGPLAGDNFVRFVQGGALAVASSLLRKETRKPP [S236L],with no effect
2,MSSSRKDHLGASSSEPLPVIIVGNGPSGICLSYLLSGYTPYTKPDAIHPHPLLQRKLTEAPGVSILDQDLDYLSEGLEGRSQSPVALLFDALLRPDTDFGGNMKSVLTWKHRKEHAIPHVVLGRNLPGGAWHSIEGSMVILSQGQWMGLPDLEVKDWMQKKRRGLRNSRATAGDIAHYYRDYVVKKGLGHNFVSGAVVTAVEWGTPDPSSCGAQDSSPLFQVSGFLTRNQAQQPFSLWARNVVLATGTFDSPARLGIPGEALPFIHHELSALEAATRVGAVTPASDPVLIIGAGLSAADAVLYARHYNIPVIHAFRRAVNDPGLVFNQLPKMLYPEYHKVHQMMREQSILSPSPYEGYRSLPRHQLLCFKEDCQAVFQDLEGVEKVFGVSLVLVLIGSHPDLSFLPGAGADFAVDPDQPLSAKRNPIDVDPFTYQSTRQEGLYAMGPLAGDNFVRFVQGGALAVASSLLRKETRKPP [D320N],with no effect

# Variants of: B3
# Details: with 4et_human EIF4ENIF1, Q9NRA8
row,Variant,effect of a mutation on the interaction
1,S7F,with no effect
2,T297I,with no effect

# Variants of: B4
# Details: with spg21_human SPG21, Q9NZD8
row,Variant,effect of a mutation on the interaction
1,S40L,with no effect
